A word on the EC50 (read off the curve): it is the midpoint of the concentration-response curve. Read a high EC50 (read off the curve) as weaker potency.

The text below walks through data of patent publication US20260184809A1 (Genmab, published 2026).

Numbering of substitutions follows the chain as printed. Read-outs that look alike come from different tables or passages of the source.

The target of assay [1] is T1, human EpCAM, full length, on cells (human, UniProt P16422 24-314).
T1 construct: also called hEpCAM; EpCAM on DiFi, HPAF-II, A549, OV-90-SC12 and MDA-MB-231_hCLDN6_hEpCAM cells
T1 sequence: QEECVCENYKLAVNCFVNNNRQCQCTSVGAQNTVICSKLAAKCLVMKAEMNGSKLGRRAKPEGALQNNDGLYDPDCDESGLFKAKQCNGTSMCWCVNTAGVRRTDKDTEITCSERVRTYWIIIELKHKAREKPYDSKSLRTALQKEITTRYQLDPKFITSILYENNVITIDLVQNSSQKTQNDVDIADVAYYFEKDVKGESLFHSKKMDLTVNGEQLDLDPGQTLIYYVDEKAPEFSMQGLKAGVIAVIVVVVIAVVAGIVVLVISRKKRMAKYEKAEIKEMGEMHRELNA
The assay can be described thus: flow cytometry on A549 cells, PE anti-human IgG F(ab')2. (Flow cytometry measures light scatter and fluorescence of single cells or particles in a stream.)
Procedure: (§1) Binding to the EpCAM-expressing human tumor cell lines DiFi, HPAF-II and A549 by bivalent EpCAM antibodies or bispecific antibodies carrying one EpCAM-binding arm was analyzed by flow cytometry. […] Next, cells were washed once (A-D) or twice (E) in FACS buffer, re-suspended in 100 μL FACS buffer and analyzed on a BD LSRFortessa FACS (BD Biosciences, USA), Celesta (BD Biosciences, USA) or iQue (Sartorius, Germany). Binding curves were analyzed using non-linear regression (sigmoidal dose-response with variable slope) using GraphPad Prism V7.02 software (GraphPad Software, San Diego, CA, USA).

Assay [2] addresses T1, human EpCAM, full length, on cells. As to the kind of experiment: flow cytometry on CHO-S cells transiently transfected with full length human EpCAM, PE anti-human IgG F(ab')2.
Procedure: (§2) Binding of EpCAM antibodies to CHO-S cells transiently transfected with full length human, cynomolgus monkey or mouse EpCAM was analyzed by flow cytometry. […] Cells were washed twice in FACS buffer, re-suspended in 20 μL FACS buffer supplemented with TO-PRO™-3 Iodide (diluted 1:20000; Invitrogen, cat. no. T3605) and analyzed on an iQue screener (Intellicyt Corporation, USA). Binding curves were analyzed by non-linear regression (sigmoidal dose-response with variable slope) using GraphPad Prism V8.4.1 software (GraphPad Software, San Diego, CA, USA).
Assay [3] shares this target. As to the kind of experiment: flow cytometry on HPAF-II cells, PE anti-human IgG F(ab')2.
Procedure: as §1
In assay [4] the target is T2, mouse EpCAM, full length, on transfected CHO-S cells (mouse, UniProt Q99JW5 24-315).
T2 sequence: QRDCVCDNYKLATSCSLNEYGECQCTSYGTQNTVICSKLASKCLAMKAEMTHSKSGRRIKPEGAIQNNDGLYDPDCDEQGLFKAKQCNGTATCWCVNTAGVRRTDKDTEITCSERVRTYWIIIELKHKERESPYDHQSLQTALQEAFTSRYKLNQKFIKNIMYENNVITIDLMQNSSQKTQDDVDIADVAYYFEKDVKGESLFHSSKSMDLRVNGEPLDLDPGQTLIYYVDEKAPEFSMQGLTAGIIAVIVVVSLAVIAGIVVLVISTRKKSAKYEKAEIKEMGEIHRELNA
As to the kind of experiment: flow cytometry on CHO-S cells transiently transfected with full length mouse EpCAM, PE anti-human IgG F(ab')2.
Procedure: as §2

Assay [5] addresses T1, human EpCAM, full length, on cells. As to the kind of experiment: flow cytometry on DiFi cells, PE anti-human IgG F(ab')2.
Procedure: as §1
For assay [6] the target is unchanged. The assay can be described thus: flow cytometry on HPAF-II cells, PE anti-human IgG F(ab')2. The source holds these as a separate data set.
Procedure: as §1
For assay [7] the target is unchanged. The assay can be described thus: flow cytometry on DiFi cells, PE anti-human IgG F(ab')2. This is another data set of the same source.
Procedure: as §1
The target is the same in assay [8]. The assay is described as above. This is another data set of the same source.
Procedure: as §1
Assay [9] shares this target. As to the kind of experiment: flow cytometry on HPAF-II cells, PE anti-human IgG F(ab')2. The source holds these as a separate data set.
Procedure: as §1
For assay [10] the target is unchanged. As to the kind of experiment: flow cytometry on CHO-S cells transiently transfected with full length human EpCAM, PE anti-human IgG F(ab')2. The source holds these as a separate data set.
Procedure: as §2
In assay [11] the target is T2, mouse EpCAM, full length, on …. As to the kind of experiment: flow cytometry on CHO-S cells transiently transfected with full length mouse EpCAM, PE anti-human IgG F(ab')2. This is another data set of the same source.
Procedure: as §2
The target of assay [12] is T1, human EpCAM, full length, on cells. As to the kind of experiment: flow cytometry on DiFi cells, PE anti-human IgG F(ab')2. The source holds these as a separate data set.
Procedure: as §1
Assay [13] has the same target. As to the kind of experiment: flow cytometry on HPAF-II cells, PE anti-human IgG F(ab')2. This is another data set of the same source.
Procedure: as §1

B1: IgG1-EpCAM-A37-FEAR (antibody)
heavy: not shown
light: EIELTQSPGTLSLSPGERATLSCRASQTISNNYLAWYQQKRGQAPRLLIYAASSRATGIPDRFSGTGSGTDFTLTISRLEPEDFAVYYCAQGELYPRQFGGGTKLEIKRTVAAPSVFIFPPSDEQLKSGTASVVCLLNNFYPREAKVQWKVDNALQSGNSQESVTEQDSKDSTYSLSSTLTLSKADYEKHKVYACEVTHQGLSSPVTKSFNRGEC
B1: the “EC50 (read off the curve)” value in assay [1] is about 0.2 µg/mL; in assay [2], about 0.03 µg/mL; in [3], about 0.1 µg/mL; in assay [4], about 0.01 µg/mL; in assay [5] it was about 0.5 µg/mL.

B2: IgG1-EpCAM-C52-FEAR (antibody, V domains shown)
VH: QVQLVQSGAEVKKPGASVKVSCKASGGTFSSYAISWVRQAPGQGLEWMGGIVPIFGTANYAQKFQGRVTITADESTSTAYMELSSLRSEDTAVYYCARDPFLHYWGQGTLVTVSS
VL: EIELTQSPGTLSLSPGERATLSCRASQSVSSSYLAWYQQKPGQAPRLLIYGASSRATGIPDRFSGSGSGTDFTLTISRLEPEDFAVYYCAQGELYPRQFGGGTKLDIKR
Take B2: the “EC50 (read off the curve)” value in assay [6] was about 0.07 µg/mL; in [7] it was about 0.3 µg/mL.

B3: IgG1-EpCAM-323-A3-FEAR (antibody)
heavy: QIQLVQSGPELKKPGETVKISCKASGYTFTNYGMNWVRQASGEGLKWMGWINTYTGEPTYGEDFKGRFAFSLETSASTAYLQINNLKNEDTATYFCARFGNYVDYWGQGTTLTVSSASTKGPSVFPLAPSSKSTSGGTAALGCLVKDYFPEPVTVSWNSGALTSGVHTFPAVLQSSGLYSLSSVVTVPSSSLGTQTYICNVNHKPSNTKVDKRVEPKSCDKTHTCPPCPAPEFEGGPSVFLFPPKPKDTLMISRTPEVTCVVVAVSHEDPEVKFNWYVDGVEVHNAKTKPREEQYNSTYRVVSVLTVLHQDWLNGKEYKCKVSNKALPAPIEKTISKAKGQPREPQVYTLPPSREEMTKNQVSLTCLVKGFYPSDIAVEWESNGQPENNYKTTPPVLDSDGSFFLYSRLTVDKSRWQQGNVFSCSVMHEALHNHYTQKSLSLSPG
light: DIVMTQAAFSNPVTLGTSASISCRSSKNLLHSNGITYLYWYLQKPGQSPHLLIYQMSNLASGVPDRFSSSGSGTDFTLRISRVEAEDVGVYYCAQNLEIPRTFGGGTKLEIKRTVAAPSVFIFPPSDEQLKSGTASVVCLLNNFYPREAKVQWKVDNALQSGNSQESVTEQDSKDSTYSLSSTLTLSKADYEKHKVYACEVTHQGLSSPVTKSFNRGEC
notes: also called IgG1-323-A3-FEAR
In the case of B3, the “EC50 (read off the curve)” value in [8] was about 0.08 µg/mL; in assay [9], about 0.02 µg/mL.

B4: bsIgG1-b12-FEAL/EpCAM-323-A3-FEAR (bispecific antibody)
heavy 1: QVQLVQSGAEVKKPGASVKVSCQASGYRFSNFVIHWVRQAPGQRFEWMGWINPYNGNKEFSAKFQDRVTFTADTSANTAYMELRSLRSADTAVYYCARVGPYSWDDSPQDNYYMDVWGKGTTVIVSSASTKGPSVFPLAPSSKSTSGGTAALGCLVKDYFPEPVTVSWNSGALTSGVHTFPAVLQSSGLYSLSSVVTVPSSSLGTQTYICNVNHKPSNTKVDKRVEPKSCDKTHTCPPCPAPEFEGGPSVFLFPPKPKDTLMISRTPEVTCVVVAVSHEDPEVKFNWYVDGVEVHNAKTKPREEQYNSTYRVVSVLTVLHQDWLNGKEYKCKVSNKALPAPIEKTISKAKGQPREPQVYTLPPSREEMTKNQVSLTCLVKGFYPSDIAVEWESNGQPENNYKTTPPVLDSDGSFLLYSKLTVDKSRWQQGNVFSCSVMHEALHNHYTQKSLSLSPG
light 1: EIVLTQSPGTLSLSPGERATFSCRSSHSIRSRRVAWYQHKPGQAPRLVIHGVSNRASGISDRFSGSGSGTDFTLTITRVEPEDFALYYCQVYGASSYTFGQGTKLERKRTVAAPSVFIFPPSDEQLKSGTASVVCLLNNFYPREAKVQWKVDNALQSGNSQESVTEQDSKDSTYSLSSTLTLSKADYEKHKVYACEVTHQGLSSPVTKSFNRGEC
heavy 2: B3 heavy
light 2: B3 light
On to B4, for which the results for the “EC50 (read off the curve)” value in assay [10] and in assay [11] were about 0.1 µg/mL and about 0.05 µg/mL, respectively.

B5: IgG1-EpCAM-UBS-54-FEAR (antibody, V domains shown)
VH: B2 VH with A16S, K19R, V52I
VL: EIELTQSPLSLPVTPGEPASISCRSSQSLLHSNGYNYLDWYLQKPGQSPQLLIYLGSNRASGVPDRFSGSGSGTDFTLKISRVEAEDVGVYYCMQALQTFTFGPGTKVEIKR
For B5, the “EC50 (read off the curve)” value in assay [2] was about 0.04 µg/mL; in [12], about 0.4 µg/mL; in assay [13] it was about 0.2 µg/mL.
